Results as given in US10918733B2, “Lipopeptide- and lipoprotein-conjugates and its use” (HELMHOLTZ-ZENTRUM FUER INFEKTIONSFORSCHUNG GMBH, priority 2009, dated 2021).

Assays:
spleen cells = test: Proliferation of spleen cells of immunized mice after in vitro restimulation with Ova, day 42 (Example 5); assay type: in vivo; details: s.c., restimulation with 0.1 up to 40 μg/ml Ova
Experimental: Experimental protocol: Spleens were removed and pooled for analysis of cellular immune responses. Cells were grown in RPMI 1640 supplemented with 10% fetal calf serum, 100 U/ml of penicillin, 50 μg/ml of streptomycin, 5×10^−5 M 2-mercaptoethanol and 1 mM L-glutamine (GIBCO BRL, Karlsruhe, Germany) and maintained at 37° C. in a humidified 5% CO2 atmosphere. Lymph node and spleen cell suspensions were adjusted to 5×10^6 cells/ml in complete medium, cells were seeded with 100 μl per well in a flat-bottomed 96-well microtiter plate (Nunc) and plates were incubated for 4 days in the presence of different concentrations of Ova. Each concentration was tested in triplicates. During the final 18 h of culture, 1 μCi of [^3H]thymidine (Amersham International, Freiburg, Germany) was added to each well. Cells were then harvested on paper filters (Filtermat A; Wallac, Freiburg, Germany) by using a cell harvester (Inotech, Wohlen, Switzerland), and the amount of incorporated [^3H]thymidine into the DNA of proliferating cells was determined by a β-scintillation counter (Wallac 1450, Micro-Trilux). The results are expressed as the arithmetic mean of [^3H]thymidine uptake in cpm.
T cell-mediated immune responses were investigated at day 42 by measuring the proliferation of cells recovered from spleens after in vitro restimulation with Ova. […]

[1] = system: Ova-specific CD8+ T cells; test: Proliferation of CFSE-stained T cells co-cultured with treated DC: CD8+ T cells; assay type: cell-based, OT1-tg mice; details: DC incubated with 10 μg/mL for 24 h, co-culture 4 days
Experimental: T cell-mediated immune responses were investigated 96 h by measuring the proliferation of cells recovered from spleens after restimulation with BPPcysOva^mPEG. Non-Ag restimulated spleen cells were chosen as negative controls (FIG. 3). […] Taking into consideration that the BPPcysOva^mPEG has a promising effect on DC activation and maturation, next the capacity of these APC to stimulate the proliferation of antigen-specific CD8+ and CD4+ T cells was evaluated. Concentrations below 10^−8 M of BPPcysOva^mPEG were still able to induce an antigen specific proliferation of CD4+ T cells shown by the reduction of CFSE+ cells (FIGS. 4A-E).
FIG. 4: Proliferation of CD8+, CD4+ and regulatory T cells. DC were generated from bone marrow of C57BL/6 mice and incubated with 10 μg/mL of B) Ova C) Ova peptides, D) Ova in the presence of BPPcysMPEG and E) BPPcysOva^mPEG alone (A) Control) for 24 h. The following day, CD4+ T cells from spleens of OT2-tg animals or CD8+ T cells of OT1-tg animals were isolated. After staining with CFSE, CD8+, CD4+ T cells were co-cultured with adjuvant-treated DCs for 4 days. The decrease of CFSE-FITC expression due to cell division of CD8+ or CD4+ T cells were analysed by flow cytometric analysis. One representative experiment out of two is shown.

B1: Ova: model antigen ovalbumin (Sigma Chemie) (protein, UniProt P01012 2-386, looked up)
Ovalbumin: GSIGAASMEFCFDVFKELKVHHANENIFYCPIAIMSALAMVYLGAKDSTRTQINKVVRFDKLPGFGDSIEAQCGTSVNVHSSLRDILNQITKPNDVYSFSLASRLYAEERYPILPEYLQCVKELYRGGLEPINFQTAADQARELINSWVESQTNGIIRNVLQPSSVDSQTAMVLVNAIVFKGLWEKAFKDEDTQAMPFRVTEQESKPVQMMYQIGLFRVASMASEKMKILELPFASGTMSMLVLLPDEVSGLEQLESIINFEKLTEWTSSNVMEERKIKVYLPRMKMEEKYNLTSVLMAMGITDVFSSSANLSGISSAESLKISQAVHAAHAEINEAGREVVGSAEAGVDAASVSEEFRADHPFLFCIKHIATNAVLFFGRCVSP
B1 was tested, and the “proliferative response of spleen cells, s.c. immunization” value (spleen cells) was “significant proliferative response” and the “stimulation of proliferation of Ova-specific CD8+ T cells by treated DC” value [1] was “very efficiently”.
